From patent US20240165163A1

Molecular target: human CD19 (human) (UniProt P15391)
Assay: cell-based or functional assay

Sequence of UniProt P15391 (P15391 20-556): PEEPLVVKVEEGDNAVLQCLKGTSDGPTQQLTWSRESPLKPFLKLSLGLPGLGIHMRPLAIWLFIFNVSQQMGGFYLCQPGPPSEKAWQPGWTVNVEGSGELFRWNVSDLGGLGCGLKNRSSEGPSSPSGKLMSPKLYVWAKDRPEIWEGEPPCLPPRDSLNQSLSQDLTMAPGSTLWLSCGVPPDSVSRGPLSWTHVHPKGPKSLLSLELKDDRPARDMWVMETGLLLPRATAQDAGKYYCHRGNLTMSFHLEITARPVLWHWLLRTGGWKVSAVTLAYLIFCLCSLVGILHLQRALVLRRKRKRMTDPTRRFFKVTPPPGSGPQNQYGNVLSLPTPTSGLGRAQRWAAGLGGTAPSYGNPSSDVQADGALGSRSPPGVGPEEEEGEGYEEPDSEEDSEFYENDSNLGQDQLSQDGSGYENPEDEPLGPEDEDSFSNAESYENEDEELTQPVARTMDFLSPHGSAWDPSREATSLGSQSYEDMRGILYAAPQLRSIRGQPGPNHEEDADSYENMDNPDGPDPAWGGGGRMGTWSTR

With “antiCD19scFv-CD8Hinge2-Notch1TMD-Notch2STS-truncCD28delTPRRP-CD3z-Gal4VP64 (receptor)” the Circuit Expression (inducible BFP reporter) was over 80%.
